{
  "source": "patent US20250327097A1",
  "about": "“ORGANISMS PRODUCING LESS CROTONIC ACID” (Global Bioenergies, priority 2021, published 2025)",
  "data": [
    {"test_system": "3-methylcrotonic acid", "format": "biochemical, Yersinia frederiksenii", "parameters": "key: “+” representing a low increase in activity; “++++” representing a high increase in activity", "values": [
      {"molecule": "I283T-P284D-N287P-S322T-N388M-C430N-L432F-L434W-S436N-H461A-dG462-A463T (protein) MFLKSLREQINLLKRQGDLRIINRPVDSYLEAAAIIRRSTETKAPVPLMTNIKGYPGCSIVGGLAALSSNPEYPLSRVAMSLGLSTTASAQSIVQYLIDGLKKTPYLPVEIDSNSAPCKQNILRGEDASLAHFPIPQVHQHDGNRYVNTWGVFIVESPDGQWCNWSIQRVQYLNDRQMIALVFPSQHISDIWEEWVKIGKPMPYALVQGCEPIVPYIAGLPLLERNVNEAEYIGALYGKGIEVVKCETHDLRVPASSEVVIEGYFAITREGVEGPFGEFAGYTDNEPSLQPILSITAISWQDDPIWPVVAEGKPVDEYHTCTGIGDAAAIQNVLLTANLPVSFVWVPLYSACHLMIVSINRHWRQTHPDLTSEQLTKKVGDVIHQTRMSIKLPKIVVLDDDVDPADTESLLWALATRIHPERKRYFYESNIFPWLNCYSEEERHNRKGKRVIIDALLPENAGTISSFDYAYPDDIKQRVLMHWETDFSHD", "Activity relative to WT": "++++"},
      {"molecule": "I283T-P284D-N287P-S322T-N388M-C430N-L432F-L434W-S436N-H461V-dG462-A463T (protein) MFLKSLREQINLLKRQGDLRIINRPVDSYLEAAAIIRRSTETKAPVPLMTNIKGYPGCSIVGGLAALSSNPEYPLSRVAMSLGLSTTASAQSIVQYLIDGLKKTPYLPVEIDSNSAPCKQNILRGEDASLAHFPIPQVHQHDGNRYVNTWGVFIVESPDGQWCNWSIQRVQYLNDRQMIALVFPSQHISDIWEEWVKIGKPMPYALVQGCEPIVPYIAGLPLLERNVNEAEYIGALYGKGIEVVKCETHDLRVPASSEVVIEGYFAITREGVEGPFGEFAGYTDNEPSLQPILSITAISWQDDPIWPVVAEGKPVDEYHTCTGIGDAAAIQNVLLTANLPVSFVWVPLYSACHLMIVSINRHWRQTHPDLTSEQLTKKVGDVIHQTRMSIKLPKIVVLDDDVDPADTESLLWALATRIHPERKRYFYESNIFPWLNCYSEEERHNRKGKRVIIDALLPENVGTISSFDYAYPDDIKQRVLMHWETDFSHD", "Activity relative to WT": "++++"},
      {"molecule": "I283T-P284D-N287P-S322T-N388M-C430N-L432F-L434W-S436N-H461V-dG462-S465V (protein) MFLKSLREQINLLKRQGDLRIINRPVDSYLEAAAIIRRSTETKAPVPLMTNIKGYPGCSIVGGLAALSSNPEYPLSRVAMSLGLSTTASAQSIVQYLIDGLKKTPYLPVEIDSNSAPCKQNILRGEDASLAHFPIPQVHQHDGNRYVNTWGVFIVESPDGQWCNWSIQRVQYLNDRQMIALVFPSQHISDIWEEWVKIGKPMPYALVQGCEPIVPYIAGLPLLERNVNEAEYIGALYGKGIEVVKCETHDLRVPASSEVVIEGYFAITREGVEGPFGEFAGYTDNEPSLQPILSITAISWQDDPIWPVVAEGKPVDEYHTCTGIGDAAAIQNVLLTANLPVSFVWVPLYSACHLMIVSINRHWRQTHPDLTSEQLTKKVGDVIHQTRMSIKLPKIVVLDDDVDPADTESLLWALATRIHPERKRYFYESNIFPWLNCYSEEERHNRKGKRVIIDALLPENVGAIVSFDYAYPDDIKQRVLMHWETDFSHD", "Activity relative to WT": "++++"},
      {"molecule": "N388M-K394R-C430N-L432F-L434W-S436N-H444T (protein) MFLKSLREQINLLKRQGDLRIINRPVDSYLEAAAIIRRSTETKAPVPLMTNIKGYPGCSIVGGLAALSSNPEYPLSRVAMSLGLSTTASAQSIVQYLIDGLKKTPYLPVEIDSNSAPCKQNILRGEDASLAHFPIPQVHQHDGNRYVNTWGVFIVESPDGQWCNWSIQRVQYLNDRQMIALVFPSQHISDIWEEWVKIGKPMPYALVQGCEPIVPYIAGLPLLERNVNEAEYIGALYGKGIEVVKCETHDLRVPASSEVVIEGYFAITREGVEGPFGEFAGYIPNENSLQPILSITAISWQDDPIWPVVAEGKPVDEYHTCSGIGDAAAIQNVLLTANLPVSFVWVPLYSACHLMIVSINRHWRQTHPDLTSEQLTKKVGDVIHQTRMSIKLPRIVVLDDDVDPADTESLLWALATRIHPERKRYFYESNIFPWLNCYSEEERTNRKGKRVIIDALLPENHGAISSFDYAYPDDIKQRVLMHWETDFSHD", "Activity relative to WT": "+"},
      {"molecule": "I283T-P284D-N287P-S322T-N388M-C430N-L432F-L434W-S436N-H461Y-dG462-S465V (protein) MFLKSLREQINLLKRQGDLRIINRPVDSYLEAAAIIRRSTETKAPVPLMTNIKGYPGCSIVGGLAALSSNPEYPLSRVAMSLGLSTTASAQSIVQYLIDGLKKTPYLPVEIDSNSAPCKQNILRGEDASLAHFPIPQVHQHDGNRYVNTWGVFIVESPDGQWCNWSIQRVQYLNDRQMIALVFPSQHISDIWEEWVKIGKPMPYALVQGCEPIVPYIAGLPLLERNVNEAEYIGALYGKGIEVVKCETHDLRVPASSEVVIEGYFAITREGVEGPFGEFAGYTDNEPSLQPILSITAISWQDDPIWPVVAEGKPVDEYHTCTGIGDAAAIQNVLLTANLPVSFVWVPLYSACHLMIVSINRHWRQTHPDLTSEQLTKKVGDVIHQTRMSIKLPKIVVLDDDVDPADTESLLWALATRIHPERKRYFYESNIFPWLNCYSEEERHNRKGKRVIIDALLPENYGAIVSFDYAYPDDIKQRVLMHWETDFSHD", "Activity relative to WT": "++++"},
      {"molecule": "I283T-P284D-N287P-S322T-N388M-C430N-L432F-L434W-S436N-dG462-A463T-S465V (protein) MFLKSLREQINLLKRQGDLRIINRPVDSYLEAAAIIRRSTETKAPVPLMTNIKGYPGCSIVGGLAALSSNPEYPLSRVAMSLGLSTTASAQSIVQYLIDGLKKTPYLPVEIDSNSAPCKQNILRGEDASLAHFPIPQVHQHDGNRYVNTWGVFIVESPDGQWCNWSIQRVQYLNDRQMIALVFPSQHISDIWEEWVKIGKPMPYALVQGCEPIVPYIAGLPLLERNVNEAEYIGALYGKGIEVVKCETHDLRVPASSEVVIEGYFAITREGVEGPFGEFAGYTDNEPSLQPILSITAISWQDDPIWPVVAEGKPVDEYHTCTGIGDAAAIQNVLLTANLPVSFVWVPLYSACHLMIVSINRHWRQTHPDLTSEQLTKKVGDVIHQTRMSIKLPKIVVLDDDVDPADTESLLWALATRIHPERKRYFYESNIFPWLNCYSEEERHNRKGKRVIIDALLPENHGTIVSFDYAYPDDIKQRVLMHWETDFSHD", "Activity relative to WT": "++++"},
      {"molecule": "I283T-P284D-N287P-S322T-N388M-C430N-L432F-L434W-S436N-H461A-dG462-A463T-S465V (protein) MFLKSLREQINLLKRQGDLRIINRPVDSYLEAAAIIRRSTETKAPVPLMTNIKGYPGCSIVGGLAALSSNPEYPLSRVAMSLGLSTTASAQSIVQYLIDGLKKTPYLPVEIDSNSAPCKQNILRGEDASLAHFPIPQVHQHDGNRYVNTWGVFIVESPDGQWCNWSIQRVQYLNDRQMIALVFPSQHISDIWEEWVKIGKPMPYALVQGCEPIVPYIAGLPLLERNVNEAEYIGALYGKGIEVVKCETHDLRVPASSEVVIEGYFAITREGVEGPFGEFAGYTDNEPSLQPILSITAISWQDDPIWPVVAEGKPVDEYHTCTGIGDAAAIQNVLLTANLPVSFVWVPLYSACHLMIVSINRHWRQTHPDLTSEQLTKKVGDVIHQTRMSIKLPKIVVLDDDVDPADTESLLWALATRIHPERKRYFYESNIFPWLNCYSEEERHNRKGKRVIIDALLPENAGTIVSFDYAYPDDIKQRVLMHWETDFSHD", "Activity relative to WT": "++++"},
      {"molecule": "I283T-P284D-N287P-S322T-N388M-C430N-L432F-L434W-S436N-H461Y-dG462-A463T (protein) MFLKSLREQINLLKRQGDLRIINRPVDSYLEAAAIIRRSTETKAPVPLMTNIKGYPGCSIVGGLAALSSNPEYPLSRVAMSLGLSTTASAQSIVQYLIDGLKKTPYLPVEIDSNSAPCKQNILRGEDASLAHFPIPQVHQHDGNRYVNTWGVFIVESPDGQWCNWSIQRVQYLNDRQMIALVFPSQHISDIWEEWVKIGKPMPYALVQGCEPIVPYIAGLPLLERNVNEAEYIGALYGKGIEVVKCETHDLRVPASSEVVIEGYFAITREGVEGPFGEFAGYTDNEPSLQPILSITAISWQDDPIWPVVAEGKPVDEYHTCTGIGDAAAIQNVLLTANLPVSFVWVPLYSACHLMIVSINRHWRQTHPDLTSEQLTKKVGDVIHQTRMSIKLPKIVVLDDDVDPADTESLLWALATRIHPERKRYFYESNIFPWLNCYSEEERHNRKGKRVIIDALLPENYGTISSFDYAYPDDIKQRVLMHWETDFSHD", "Activity relative to WT": "++++"},
      {"molecule": "I283T-P284D-N287P-S322T-N388M-C430N-L432F-L434W-S436N-H461A-dG462-S465V (protein) MFLKSLREQINLLKRQGDLRIINRPVDSYLEAAAIIRRSTETKAPVPLMTNIKGYPGCSIVGGLAALSSNPEYPLSRVAMSLGLSTTASAQSIVQYLIDGLKKTPYLPVEIDSNSAPCKQNILRGEDASLAHFPIPQVHQHDGNRYVNTWGVFIVESPDGQWCNWSIQRVQYLNDRQMIALVFPSQHISDIWEEWVKIGKPMPYALVQGCEPIVPYIAGLPLLERNVNEAEYIGALYGKGIEVVKCETHDLRVPASSEVVIEGYFAITREGVEGPFGEFAGYTDNEPSLQPILSITAISWQDDPIWPVVAEGKPVDEYHTCTGIGDAAAIQNVLLTANLPVSFVWVPLYSACHLMIVSINRHWRQTHPDLTSEQLTKKVGDVIHQTRMSIKLPKIVVLDDDVDPADTESLLWALATRIHPERKRYFYESNIFPWLNCYSEEERHNRKGKRVIIDALLPENAGAIVSFDYAYPDDIKQRVLMHWETDFSHD", "Activity relative to WT": "++++"},
      {"molecule": "I283T-P284D-N287P-S322T-N388M-C430N-L432F-L434W-S436N-H461A-dG462-S465I (protein) MFLKSLREQINLLKRQGDLRIINRPVDSYLEAAAIIRRSTETKAPVPLMTNIKGYPGCSIVGGLAALSSNPEYPLSRVAMSLGLSTTASAQSIVQYLIDGLKKTPYLPVEIDSNSAPCKQNILRGEDASLAHFPIPQVHQHDGNRYVNTWGVFIVESPDGQWCNWSIQRVQYLNDRQMIALVFPSQHISDIWEEWVKIGKPMPYALVQGCEPIVPYIAGLPLLERNVNEAEYIGALYGKGIEVVKCETHDLRVPASSEVVIEGYFAITREGVEGPFGEFAGYTDNEPSLQPILSITAISWQDDPIWPVVAEGKPVDEYHTCTGIGDAAAIQNVLLTANLPVSFVWVPLYSACHLMIVSINRHWRQTHPDLTSEQLTKKVGDVIHQTRMSIKLPKIVVLDDDVDPADTESLLWALATRIHPERKRYFYESNIFPWLNCYSEEERHNRKGKRVIIDALLPENAGAIISFDYAYPDDIKQRVLMHWETDFSHD", "Activity relative to WT": "++++"}
    ]}
  ]
}
